Source: patent EP4741426A1

Molecular target: CD215 (IL-15Rα), CD122 (IL-15Rβ), and CD132 (IL-15Rγ) proteins expressed together on the HEK Blue cell line
Assay: cell-based or functional assay

Wild-type IL-2 (from UniProt P60568 21-153) (ligand)
EC50 (nM), SEAP reporter at 620 nm, HEK Blue cell line: 0.007 nM
